Results as given in patent US20170000850A1.

Molecular target: CD137 ligand (CD137L) (human) (UniProt P41273)
Assay: cell-based or functional assay

Sequence of UniProt P41273 (P41273 whole entry): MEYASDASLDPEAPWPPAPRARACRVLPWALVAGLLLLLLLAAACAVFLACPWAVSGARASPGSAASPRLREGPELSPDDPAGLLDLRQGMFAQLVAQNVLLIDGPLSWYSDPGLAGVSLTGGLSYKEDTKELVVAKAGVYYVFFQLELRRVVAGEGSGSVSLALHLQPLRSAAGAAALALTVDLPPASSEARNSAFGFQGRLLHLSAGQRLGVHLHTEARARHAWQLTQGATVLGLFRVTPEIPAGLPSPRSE

- IL-8 production by monocytes co-cultured for 5 days (ELISA): 2 fold
Substance: RBC-CD137-Fc (biotinylated CD137-Fc conjugated through avidin to biotinylated red blood cells) (from UniProt Q07011 24-186) (Fc fusion)
